The numbers were not newly measured in patent publication US20070264241A1, “Compounds for Enhanced Cancer Therapy” (priority 2004, published 2007), which cites them from elsewhere.

In the data set the test system is cell line transfected with Dm dNK variant. The conditions noted are these: cited from earlier work.

B1: B5: mutant form of the Drosophila melanogaster Dm dNK deoxyribonucleoside kinase (SEQ ID NO 5) (protein)
chain: MAEAASCARKGTKYAEGTQPFTVLIEGNIGSGKTTYLNHFEKYKNDICLLTEPVEKWRNVNGVNLLELMYKDPKKWAMPFQSYATLTMLQSHTAPTNKKLKIMERSIFSARYCFVENMRRNGSLEQGMYNTLEEWYKFIEESIHVQADLIIYLRTSPEVAYERIRQRARSEESCVPLKYLQELHELHEDWLIHQRRPQSCKVLVLDADLDLENIGTEYQRSESSIFDAISSNQQPSPVPVSPSKRQRVAR
modifications: Drosophila melanogaster
B1: the “degree of activation for gemcitabine relative to wild type Dm dNK” value is on record as “approximately 50 times”.
